Laboratory results taken from paper PMC12781872.
“And” between values parts separate entries of the source, which are not always exact repeats. Equal entries are not always repeated.

Target: Dylight488-labelled Mtb RNAP core derivative (β' D359 4-azido-L-phenylalanine) (Mycobacterium tuberculosis) (UniProt P9WGZ1)
Assay: FRET or BRET

Question: “TMR-labelled Mtb σ^F used in the FRET competition and titration assays (from UniProt P9WGI3 1-261) (natural protein)” was tested. Which Kd did it give?
Answer: Its Kd is 21.1 nM and 2.6 nM.
